Assay [1] concerns the target T1, PCSK9 protein inserted with biotin receiving peptide BP15 and His-tag: PCSK9-BP15-His6 (human, UniProt Q8NBP7 153-692; A8T644 31-152, biotin on the BP15 biotin receiving peptide (labeled during the expression)).
T1 construct: also called WT PCSK9; PCSK9 WT
Put plainly: ELISA, biotin PCSK9 on streptavidin plate. As for the experimental part:
The binding ability of anti-PCSK9 antibodies of the present invention to PCSK9 protein (WT PCSK9, SEQ ID NO: 5) was detected by measuring the amounts of antibodies binding to PCSK9 immobilized on the ELISA plate.
(§1) Streptavidin (sigma, CAT #S4762) was diluted to 2 μg/ml with PBS and was added into a 96-well ELISA plate, at 4° C. for overnight. The plate was washed and then was blocked with Tris buffer (including 0.9 mM CaCl₂, 0.05% Tween 20 and 5% skim milk) at 37° C. for 2 hours. Then the plate was washed again and 100 μl/well of biotin-labeled PCSK9 (produced in-house, diluted with Tris buffer containing 0.9 mM CaCl₂, 0.05% Tween 20 and 1% skim milk) was added and incubated at 37° C. for 1 hour. After the wash step various concentrations of diluted PCSK9 antibody samples was added to the plate and incubated at 37° C. for 1 hour. […] Then the plate was washed and tetramethyl brenzidine solution was added for development. Finally, the stop buffer was added and the OD450 value was measured on the Microplate reader, and then EC50 was calculated.
In general terms: ELISA stands for enzyme-linked immunosorbent assay.

Assay [2] addresses T2, PCSK9 D374Y mutant protein inserted with biotin receiving peptide BP15 and His-tag: PCSK9-D374Y-BP15-His6 (human, UniProt Q8NBP7 153-692; A8T644 31-152, biotin on the BP15 biotin receiving peptide).
T2 construct: also called PCSK9-Y; mutant PCSK9
Nature of the assay: ELISA, biotin PCSK9-Y on streptavidin plate. As for the experimental part:
The binding ability of anti-PCSK9 antibodies of the present invention to PCSK9-Y protein (mutant PCSK9, SEQ ID NO: 6) was detected by measuring the amounts of antibodies binding to PCSK9-Y immobilized on the ELISA plate.
as §1, with “hours. The” for “hours. Then the”, “washed” for “washed again”, “biotin-labeled PCSK9-Y” for “biotin-labeled PCSK9”, “wash step,” for “wash step”, “samples were” for “samples was”

Assay [3] has as its target T1, PCSK9 protein inserted with biotin …. Put plainly: competition ELISA, LDLR-FC coated, biotin PCSK9 + antibody. As for the experimental part:
(§2) Different back mutations were selected for combination (Table 3) after CDR grafting. The designed humanized sequences were fully-gene synthesized and heavy and light chains were combined with each other for mammalian expression (Table 4). After purification of the protein, the blocking activity test was performed similarly to that for chimeric antibodies (see test 3 and 4 for the method and the results are shown in Table 5). Some cloned proteins were selected and were determined for dissociation constants by Surface Plasmon resonance (SPR) (Biacore X100, GE, see test 5). The sample to be tested was captured by the Amine-Coupling Anti-Fc pAb (GE) on the CM5 chip (GE). PCSK9 (SEQ ID NO: 1) or PCSK9-Y (SEQ ID NO: 4) was the mobile phase, working buffer was 1×HBS-EP⁺, pH 7.4, regeneration bu0ffer was 3 M MgCl₂.
LDLR-FC was diluted to 5 μg/ml with phosphate buffer and was added into the 96-well ELISA plate, kept at 4° C. overnight. The plate was washed and then blocked with Tris buffer (including 0.9 mM CaCl₂, 0.05% Tween 20 and 5% skim milk) at 37° C. for 2 hours. […] Finally, the stop buffer was added and OD450 value was measured on the Microplate reader, then IC50 value was calculated.

For assay [4] the target is unchanged. The assay is described as above. As for the experimental part: The blocking ability of PCSK9 antibodies according to the present invention for the binding of LDLR-FC (produced in-house, with sequence of SEQ ID NO: 8) and PCSK9 (SEQ ID NO: 5) was tested by measuring the amount of PCSK9 binding to LDLR in the presence of the antibodies.
(§3) LDLR-FC was diluted to 5 μg/ml with phosphate buffer and was added into the 96-well ELISA plate, kept at 4° C. overnight. The plate was washed and then blocked with Tris buffer (including 0.9 mM CaCl₂, 0.05% Tween 20 and 5% skim milk) at 37° C. for 2 hours. Then the plate was washed and 100 μl/well of mixture of biotin-labeled PCSK9 (diluted to 2 μg/ml with Tris buffer containing 0.9 mM CaCl₂, 0.05% Tween 20 and 1% skim milk) and antibody samples (diluted with Tris buffer containing 0.9 mM CaCl₂, 0.05% Tween 20 and 1% skim milk) was added and incubated at 37° C. for 1 hour. Then the plate was washed again and horseradish peroxidase-streptavidin (sigma, CAT #S2438) was added and incubated at 37° C. for 1 hour. Then the plate was washed and tetramethyl brenzidine solution was added for development. Finally, the stop buffer was added and OD450 value was measured on the Microplate reader, then IC50 value was calculated.
The source holds these as a separate data set.

The target in assay [5] is T2, PCSK9 D374Y mutant protein inserted …. Put plainly: competition ELISA, LDLR-FC coated, biotin PCSK9-Y + antibody. As for the experimental part: as §2
LDLR-FC (produced in-house, with sequence of SEQ ID NO: 8) was diluted to 2 μg/ml with phosphate buffer and was added into the 96-well ELISA plate, at 4° C. overnight. The plate was washed and then blocked with Tris buffer (including 0.9 mM CaCl₂, 0.05% Tween 20 and 5% skim milk) at 37° C. for 2 hours. […] Finally, the stop buffer was added and OD450 value was measured on the Microplate reader, then IC50 value was calculated.

Assay [6] has the same target. Described as above. As for the experimental part: The blocking ability of PCSK9 antibodies according to the present invention for the binding of LDLR-FC and PCSK9-Y (mutant PCSK9, SEQ ID NO: 6) was tested by measuring the amount of PCSK9-Y binding to LDLR in the presence of the antibodies.
as §3, with “LDLR-FC (produced in-house, with sequence of SEQ ID NO: 8)” for “LDLR-FC”, “to 2” for “to 5”, “plate,” for “plate, kept”, “biotin-labeled mutant” for “biotin-labeled”, “to 1” for “to 2”
The source holds these as a separate data set.

Assay [7] has as its target T3, PCSK9 with His-tag: PCSK9-His6 (human, UniProt Q8NBP7 153-692; A8T644 31-152).
T3 construct: also called huPCSK9; human PCSK9 antigen
Nature of the assay: SPR Biacore X100, antibody captured by anti-Fc pAb on CM5, PCSK9 mobile phase. As for the experimental part: as §2

Assay [8] deals with T4, PCSK9-D374Y mutant protein with His-tag: PCSK9-D374Y-His6 (human, UniProt Q8NBP7 153-692; A8T644 31-152).
T4 construct: also called PCSK9-Y; PCSK9-Y antigen
Nature of the assay: SPR Biacore X100, antibody captured by anti-Fc pAb on CM5, PCSK9-Y mobile phase. As for the experimental part:
as §2
For orientation: In SPR one partner is held on a chip, and binding of the other changes the refractive index at the surface.

Here are results for 1 molecule from patent US20200270365A1 (JIANGSU HENGRUI MEDICINE, published 2020).

Where two headings read alike, the source gives them in different places.

B1: humanized antibody h011-3 (antibody, V domains shown)
VH: QVQLVQSGAEVKKPGASVKVSCKASGYTFTGYTIHWVRQAPGQGLEWMGYINPSSTYTKFNQKFKDRVTMTRDTSISTAYMELSRLRSDDTAVYYCARERIYSNYWFFDVWGQGTTVTVSS
VL: DIVMTQSPSSLSASVGDRVTITCKASQNVYTAVAWYQQKPGKSPKLLIYSASNRYTGVPSRFSGSGSGTDFTLTISSLQPEDFATYFCQQYSSYPYTFGGGTKVEIK
notes: h011_VH.1 with h011_VL.1B
For the molecule B1, the EC50 (in general, the concentration giving half of the maximal effect) in assay [1] is 7.19 ng/mL; in assay [2] it was 1.78 µg/mL. The IC50 (usually the concentration that gives 50% inhibition) in assay [3] turned out to be 0.205 µg/mL; in assay [4], 0.681 µg/mL; in assay [5], 5.13 µg/mL; in assay [6], 5.49 µg/mL. Moreover, the Kd (usually a measure of binding affinity in units of concentration) came to 0.263 nM in assay [7] and 34.5 nM in assay [8]. In addition, the koff (usually the rate constant with which the complex falls apart) was determined as 1.88e-05 s⁻¹ in assay [7] and 0.00578 s⁻¹ in assay [8]. In addition, the kon (commonly a measure of how fast the partners come together) in assay [7] came to 71300 M⁻¹ s⁻¹; in assay [8] it was 168000 M⁻¹ s⁻¹.
